Where two headings read alike, the source gives them in different places.
Assays:
COS-7 S10 cells [1] = experiment: Cell adhesion assays, COS-7 S10; assay type: cell-based, monkey
Description: For kinetics of attachment either HeLa-A3 or COS-7 S10 cells were induced with 1 µg/ml doxycycline 48 h prior to experiment and 2 × 10^5 uninduced or induced cells in 1 ml were added to 24 well tissue culture dishes and allowed to adhere at 37°C. At the given time (30 min to 2 h) cells were washed 2× with PBS and detached with 250 µl 0.05% (w/v) trypsin in versene for 5 min at 37°C, neutralised in serum-containing media (SCM), counted and the percent of seeded cells recorded. For strength of adhesion, the same cells were seeded in 24 well tissue culture dishes so as to yield 80% confluence in 24 h. In all cases identical dishes were set up for test and control. After 24 h, wells were washed 2× and detached with 250 µl, 0.0125% (w/v) trypsin in versene for 5 min at 37°C. Wells were then carefully washed 2× to remove weak binders. Trypsin in versene (250 µl of 0.05% (w/v)) was then added to both test dish and control dish for 5 min to remove all cells from the well, neutralised with SCM and counted. The proportion of cells remaining after the weak digestion step was determined from the ratio of results from test and control plates. All assays were performed in triplicate.

HeLa-A3 cells = experiment: S100P-enhanced cell migration, HeLa-A3; assay type: cell-based, human; conditions: HeLa-A3, doxycycline 1 µg/ml, 24 h
Excerpt: (§1) Cell migration rate (%) = M/G × 100.

[2] = system: nonmuscle myosin (NM) isoforms; conditions: ref [10]; cited from earlier work
Excerpt: Overexpression of S100P promotes breast cancer metastasis in animals and elevated levels in primary breast cancers are associated with poor patient outcomes.

COS-7 S10 cells [3] = experiment: Boyden chamber cell migration, S100P-inducible COS-7; assay type: cell-based, monkey; conditions: 24 h
Excerpt: as §1

α, β-tubulins = experiment: Pulldown assay, His-S100P beads with COS-7 cell lysates; assay type: binding, monkey; conditions: 1 mM CaCl2 vs EGTA
Description: […] After brief sonication, the lysates were centrifuged at 15,000g for 30 min to remove insoluble components. The supernatants were then applied to His-S100P columns or control column with His-binding beads only. After extensive washings with 10 mM Tris–HCl, pH 7.4, 150 mM NaCl, 0.5% (v/v) Tween 20, the bound proteins were eluted with 300 mM imidazole and then subjected to Western blotting using mouse anti-S100P mAb and anti-tubulin antibodies (R&D Systems, Abingdon, U.K.).

α,β-tubulin = experiment: SPR binding of S100P to immobilised α,β-tubulin; set-up: species or system human; conditions: for Kd: mean ± SE, 3 experiments
Excerpt: The coding sequences for full length (human) α-tubulin and for N-terminal and C-terminal halves of α or β-tubulin were generated using PCR with specific primers shown in Supplementary Table S1 and sub-cloned into pET16(b) for expressing and purifying His-tagged full-length α-tubulin and His-tagged tubulin fragments in E. coli, as described previously. β-tubulin was purchased from Abcam.
For SPR binding assays, α,β-tubulin proteins described earlier were immobilised on a carboxymethylated dextran surface of a CM5 chip using BS^3 for use in Biocore X100. Recombinant S100P produced as described previously was used as a ligand in different concentrations at 20, 50, 100, 200, 1000, 2000 nM for calculation of the equilibrium dissociation constant (Kd) from the association/dissociation rate constants and from the extent of binding near equilibrium (Supplementary Table S2), as described previously. To detect the effects of tubulin peptides on the interaction of tubulin, different concentrations of tagged and untagged peptides were mixed with 1 µM S100P first and the mixtures were then applied to the tubulin-coated chip. The relative changes in kinetics and binding extents with different peptides were calculated using software provided by the manufacturer.

tubulin = experiment: Co-immunoprecipitation, COS-7 S10 lysates; assay type: binding, monkey; conditions: S100P-induced COS-7 S10 lysates, 0.5 mM CaCl2
Description: For co-immunoprecipitations, S100P-inducible COS-7 cells were incubated with 1 µg/ml doxycycline for 16 h and lysed in RIPA buffer (Thermo Fisher Scientific, Loughborough, U.K.) with 0.5 mM CaCl2. After sonication and centrifugation as described above, control antibody (rabbit IgG from Sigma), anti-tubulin or anti-S100P were added to three separate tubes containing 0.7 ml each of cell lysate and incubated overnight at 4°C. Then 100 µl Dynabeads® ProteinG (Thermo Fisher Scientific) were added to each tube and the contents incubated for 4 h at 4°C. After extensive washings with washing buffer (10 mM Tris–HCl, pH 7.4, 150 mM NaCl, 1% (v/v) Triton X-100, 0.2 mM sodium orthovanadate), the bound proteins were eluted with 0.1 M glycine pH 2.5 and then subjected to Western blotting using the paired antibodies together with a sample of the input and the last wash.

Rama 37-T25 cells = experiment: S100P-enhanced cell migration, Rama 37-T25; assay type: cell-based, rat; conditions: Rama 37-T25, doxycycline 1 µg/ml, 24 h
Excerpt: as §1

HeLa cells = conditions: inducible HeLa (range stated for Rama 37 and HeLa) ref [10],[37]; cited from earlier work
Excerpt: (§2) In our previous study, we reported that S100P enhances cell migration by binding to and affecting distribution of NMIIA filaments in HeLa and Rama 37 cells. We now sought to determine whether S100P overexpression could induce such changes in cells when NMIIA was absent. The monkey kidney COS-7 cells have been reported to lack NMIIA [28] and this was confirmed in comparison with its presence in human HeLa and rat Rama 37 cells (Figure 1A). We then generated three S100P-inducible COS-7 cell lines using doxycycline as the inducing agent, the largest increase being in clone S10 (Figure 1B ...

Rama 37 cells = conditions: inducible Rama 37 (range stated for Rama 37 and HeLa) ref [10],[37]; cited from earlier work
Excerpt: as §2

B1: S100P: recombinant or doxycycline-induced overexpressed S100P protein (protein)
chain: MTELETAMGMIIDVFSRYSGSEGSTQTLTKGELKVLMEKELPGFLQSGKDKDAVDKLLKDLDANGDAQVDFSEFIVFVAAITSACHKYFEKAGLK
With B1 the “change in rate and strength of adhesion (in words)” value (COS-7 S10 cells [1]; COS-7 S10, 1 µg/ml doxycycline, P ≥ 0.18) was “no significant decrease in the rate of adhesion (Supplementary Figure S1) or significant decrease in strength of adhesion”, the “change in strength of adhesion (in words)” value (COS-7 S10 cells [1]; COS-7 S10, S100P induced vs uninduced, n = 3) was “significant change in the strength of adhesion upon induction of S100P (t = 0.6, P = 0.95, n = 3)” and the S100P-enhanced cell migration (HeLa-A3 cells) was 3–4 folds. The “order of interaction with NM isoforms” value [2] was “IIA > IIC > IIB”, the S100P-enhanced cell migration (COS-7 S10 cells [3]; COS-7 S10, doxycycline 1 µg/ml) was 2–3 folds and the “fold increase in relative cell migration rate on S100P induction” value (COS-7 S10 cells [3]; three inducible COS-7 lines S7, S10, S23, 1 µg/ml doxycycline) was 2.5 to 2.9 fold. For the same molecule, the “α, β-tubulins captured by His-S100P” value (α, β-tubulins) was “detected in eluates, but only when 1 mM CaCl2 but not EGTA was originally present”, the “calcium concentration above which complex starts to form” value (α,β-tubulin; 0.15 M NaCl, 2 µM S100P) was “above 30 µM” and the “calcium concentration saturating the reaction” value (α,β-tubulin; 0.15 M NaCl, 2 µM S100P) was 0.2 mM. The Kd (α,β-tubulin; Kd from association/dissociation rate constants, 150mM NaCl, 0.5mM CaCl2, single cycle, S100P 20-2000 nM, CM5 chip, read-out: Kinetic dissociation constant Kd) was 120 ± 12 nM, the Kd (α,β-tubulin; Kd from rate constants, 150mM NaCl, 0.5mM CaCl2, multiple cycles, read-out: Kinetic dissociation constant Kd) was 210 ± 90 nM and the “Kinetic dissociation constant Kd” value (α,β-tubulin; Kd from rate constants, 150M NaCl (so in the source), EDTA 5mM, multiple cycles, 1L = incalculably large) was 1 L. The Kd (α,β-tubulin; Kd from rate constants, 300M NaCl (so in the source), 0.5mM CaCl2, multiple cycles, read-out: Kinetic dissociation constant Kd) was 890 ± 90 nM, the Kd (α,β-tubulin; Kd from rate constants, 500M NaCl (so in the source), 0.5mM CaCl2, multiple cycles, read-out: Kinetic dissociation constant Kd) was 8300 ± 700 nM and the “calcium concentration at saturation of binding” value (α,β-tubulin; SPR, Figure 2F-H) was 200 µM. The “Equilibrium dissociation constant Kd” value (α,β-tubulin; at or near equilibrium, 150M NaCl (so in the source), EDTA 5mM, multiple cycles, 1L = incalculably large) was 1 L, the Kd (α,β-tubulin; at or near equilibrium, 300M NaCl (so in the source), 0.5mM CaCl2, multiple cycles, read-out: Equilibrium dissociation constant Kd) was 1100 ± 160 nM and the “complex with tubulin in immunoprecipitates” value (tubulin) was “immunoprecipitates produced with anti-S100P also contained tubulin”. For the same molecule, the S100P-enhanced cell migration (Rama 37-T25 cells) was 3–4 folds, the “fold increase in migration on S100P overexpression” value (HeLa cells) was 3.2 to 4.8 fold and the “fold increase in migration on S100P overexpression” value (Rama 37 cells) was 3.2 to 4.8 fold.

— article PMC7108782, “Direct interaction of metastasis-inducing S100P protein with tubulin causes enhanced cell migration without changes in cell adhesion” (Biochemical Journal, 2020)
